Patent publication US20210171613A1 (NATIONAL RESEARCH COUNCIL OF CANADA, published 2021)

Tests used:
[1] = target: T1, Clostridium difficile toxin A (TcdA) (Clostridium difficile, UniProt P16154 1-2710); assay: cell-based or functional assay
[2] = target: T1, Clostridium difficile toxin A (TcdA); assay: SPR (Biacore 3000), VHH over immobilized TcdA; binding free energy difference relative to parent VHH
Method: (§1) Before surface plasmon resonance (SPR) binding experiments, IMAC-purified VHHs were subjected to de-salting and further purification by size-exclusion chromatography (SEC). Approximately 500 μg of each VHH was injected over a Superdex 75 Increase 10/300 GL SEC column (GE Healthcare) in Biacore running buffer HBS-EP (10 mM HEPES pH 7.4, 150 mM NaCl, 3 mM EDTA, 0.005% (v/v) P20; GE Healthcare) under the control of an ÄKTA FPLC at 0.8 mL/min. Monomeric VHH fractions were collected and analyzed for binding to TcdA using a Biacore 3000 SPR instrument (GE Healthcare). Approximately 4,500 resonance units (RUs) of TcdA (List Biological Laboratories, Campbell, Calif.) were immobilized on a CM5 sensor chip (GE Healthcare) using the conditions previously described (Hussack et al, 2011). HBS-EP running buffer was used for all binding studies and regeneration of TcdA surfaces. Next, various dilution ranges of VHHs (as low as 10 nM-0.5 nM to as high as 5 μM-50 nM) were injected over immobilized TcdA at a flow rate of 40 μL/min with 120 s contact time and 600 s dissociation. Reference-subtracted sensorgrams were analyzed with BIAevaluation software (GE Healthcare) and fit to a 1:1 binding model. In cases where rapid kₒₙ and koff rate constants were observed, equilibrium dissociation constants (KDs) were determined by steady-state analysis.

[3] = target: T1, Clostridium difficile toxin A (TcdA); assay: SPR on immobilized TcdA
Method: as §1
The location of these mutations relative to the antigen epitope is illustrated in FIG. 2C.

[4] = target: T1, Clostridium difficile toxin A (TcdA); assay: SPR (Biacore 3000), VHH over immobilized TcdA; ratio of parent KD to mutant KD
Method: as §1

[5] = target: T1, Clostridium difficile toxin A (TcdA); assay: SPR (Biacore 3000), VHH over immobilized TcdA, 1:1 fit
Method: as §1

T1 sequence (P16154 whole entry): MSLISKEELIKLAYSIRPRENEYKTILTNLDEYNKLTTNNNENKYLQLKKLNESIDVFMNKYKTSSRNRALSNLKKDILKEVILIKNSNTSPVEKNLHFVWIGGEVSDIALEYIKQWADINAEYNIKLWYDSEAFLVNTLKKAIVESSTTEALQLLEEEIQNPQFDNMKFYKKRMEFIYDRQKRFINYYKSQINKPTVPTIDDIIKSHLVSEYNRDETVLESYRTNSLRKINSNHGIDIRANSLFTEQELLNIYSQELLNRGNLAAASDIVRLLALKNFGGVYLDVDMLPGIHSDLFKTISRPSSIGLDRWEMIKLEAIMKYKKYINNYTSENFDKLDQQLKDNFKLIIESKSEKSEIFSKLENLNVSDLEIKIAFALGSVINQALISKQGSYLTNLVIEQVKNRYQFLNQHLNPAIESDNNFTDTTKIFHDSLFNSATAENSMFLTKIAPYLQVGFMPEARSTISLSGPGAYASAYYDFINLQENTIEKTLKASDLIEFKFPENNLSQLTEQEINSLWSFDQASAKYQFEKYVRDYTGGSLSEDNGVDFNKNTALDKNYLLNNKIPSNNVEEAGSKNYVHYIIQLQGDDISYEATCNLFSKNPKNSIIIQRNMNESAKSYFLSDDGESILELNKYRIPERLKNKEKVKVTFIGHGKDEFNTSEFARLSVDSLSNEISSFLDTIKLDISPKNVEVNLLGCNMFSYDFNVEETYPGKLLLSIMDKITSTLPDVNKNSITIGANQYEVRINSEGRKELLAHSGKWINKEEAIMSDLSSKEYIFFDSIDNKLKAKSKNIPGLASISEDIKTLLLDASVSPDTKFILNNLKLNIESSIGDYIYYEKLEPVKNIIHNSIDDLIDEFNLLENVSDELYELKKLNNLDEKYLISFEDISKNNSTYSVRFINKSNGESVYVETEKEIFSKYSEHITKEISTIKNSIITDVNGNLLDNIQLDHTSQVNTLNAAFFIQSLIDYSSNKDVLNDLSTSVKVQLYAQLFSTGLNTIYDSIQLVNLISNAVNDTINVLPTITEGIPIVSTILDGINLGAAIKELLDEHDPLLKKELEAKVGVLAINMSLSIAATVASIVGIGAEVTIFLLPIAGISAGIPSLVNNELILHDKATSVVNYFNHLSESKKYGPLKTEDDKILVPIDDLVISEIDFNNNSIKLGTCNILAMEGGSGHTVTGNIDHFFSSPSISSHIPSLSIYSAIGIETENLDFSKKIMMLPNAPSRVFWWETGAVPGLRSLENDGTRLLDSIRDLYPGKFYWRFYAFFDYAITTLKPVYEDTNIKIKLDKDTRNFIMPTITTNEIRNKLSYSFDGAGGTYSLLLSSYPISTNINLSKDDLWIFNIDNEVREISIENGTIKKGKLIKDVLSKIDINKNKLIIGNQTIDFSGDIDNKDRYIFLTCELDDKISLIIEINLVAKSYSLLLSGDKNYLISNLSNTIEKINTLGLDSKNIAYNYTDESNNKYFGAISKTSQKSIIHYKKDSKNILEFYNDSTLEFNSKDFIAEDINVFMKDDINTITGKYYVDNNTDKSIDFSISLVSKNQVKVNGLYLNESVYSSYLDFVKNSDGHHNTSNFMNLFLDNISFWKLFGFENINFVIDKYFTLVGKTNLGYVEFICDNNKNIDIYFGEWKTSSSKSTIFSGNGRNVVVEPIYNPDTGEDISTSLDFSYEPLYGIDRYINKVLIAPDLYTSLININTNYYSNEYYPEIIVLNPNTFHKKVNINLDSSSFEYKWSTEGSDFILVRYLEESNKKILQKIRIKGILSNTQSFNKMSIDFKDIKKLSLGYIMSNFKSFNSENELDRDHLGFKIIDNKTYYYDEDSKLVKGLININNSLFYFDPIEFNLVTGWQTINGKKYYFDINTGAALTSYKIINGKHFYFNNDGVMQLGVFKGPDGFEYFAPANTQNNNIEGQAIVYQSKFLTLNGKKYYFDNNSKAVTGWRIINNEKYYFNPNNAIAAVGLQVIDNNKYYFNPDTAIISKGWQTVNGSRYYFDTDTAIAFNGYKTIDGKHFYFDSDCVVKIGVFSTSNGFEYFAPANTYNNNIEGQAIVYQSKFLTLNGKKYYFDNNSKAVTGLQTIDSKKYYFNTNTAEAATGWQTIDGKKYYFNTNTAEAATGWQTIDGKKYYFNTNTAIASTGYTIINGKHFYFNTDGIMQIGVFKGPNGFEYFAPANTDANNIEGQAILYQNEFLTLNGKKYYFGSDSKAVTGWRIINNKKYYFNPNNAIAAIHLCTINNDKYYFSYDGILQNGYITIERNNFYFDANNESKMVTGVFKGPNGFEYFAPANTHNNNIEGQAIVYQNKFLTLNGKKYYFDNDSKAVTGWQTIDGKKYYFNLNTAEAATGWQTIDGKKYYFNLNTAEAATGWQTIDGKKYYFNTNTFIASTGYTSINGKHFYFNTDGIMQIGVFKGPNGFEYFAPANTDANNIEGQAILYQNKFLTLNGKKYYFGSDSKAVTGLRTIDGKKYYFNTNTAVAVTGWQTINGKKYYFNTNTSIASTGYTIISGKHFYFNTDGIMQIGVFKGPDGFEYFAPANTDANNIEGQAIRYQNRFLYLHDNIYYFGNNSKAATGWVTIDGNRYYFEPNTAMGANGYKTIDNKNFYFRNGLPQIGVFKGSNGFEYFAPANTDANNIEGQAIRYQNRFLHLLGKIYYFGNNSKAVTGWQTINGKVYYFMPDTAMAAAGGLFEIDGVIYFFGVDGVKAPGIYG

Binder	TcdA IC50, TcdA-induced Vero cell cytotoxicity (WST-1) [1]	maximal TcdA inhibition level [1]	ΔΔG [2]	fold decrease in affinity relative to parent A26.8 VHH [3]	KD^WT/KD [4]	Kd [5]	koff [5]	kon [5]	fold improvement in KD relative to parent A26.8 VHH [3]	fold improvement in binding affinity relative to parent A26.8 VHH [3]	fold improvement in koff relative to parent [3]	fold improvement in kon relative to parent [3]	fold increase in neutralization potency relative to parent A26.8 VHH [1]	fold change in kon relative to original A26.8 [3]	fold improvement of KD relative to original A26.8 [3]	fold affinity improvement relative to parent A26.8 VHH [3]	fold increase in kon relative to parent A26.8 VHH [3]
Parent A26.8 VHH (VHH, not shown: small tags and cut ends) VHH: QVKLEESGGGLVQAGGSLRLSCAASERTFSRYPVAWFRQAPGAEREFVAVISSTGTSTYYADSVKGRFTISRDNAKVTVYLQMNNLKREDTAVYFCAVNSQRTRLQDPNEYDYWGQGTQVTVSS	~70 nM	~60%	–	–	–	–	–	–	–	–	–	–	–	–	–	–	–
A26.8 VHH mutant D107R (VHH, not shown: small tags and cut ends) VHH: QVKLEESGGGLVQAGGSLRLSCAASERTFSRYPVAWFRQAPGAEREFVAVISSTGTSTYYADSVKGRFTISRDNAKVTVYLQMNNLKREDTAVYFCAVNSQRTRLQRPNEYDYWGQGTQVTVSS	–	–	0.01 kcal/mol	≤ 2.5 fold	1	19 nM	0.0259 s⁻¹	1.39e+06 M⁻¹ s⁻¹	–	–	–	–	–	–	–	–	–
A26.8 VHH mutant D107Y (VHH, not shown: small tags and cut ends) VHH: QVKLEESGGGLVQAGGSLRLSCAASERTFSRYPVAWFRQAPGAEREFVAVISSTGTSTYYADSVKGRFTISRDNAKVTVYLQMNNLKREDTAVYFCAVNSQRTRLQYPNEYDYWGQGTQVTVSS	–	–	0.5 kcal/mol	≤ 2.5 fold	0.4	44 nM	0.0711 s⁻¹	1.62e+06 M⁻¹ s⁻¹	–	–	–	–	–	–	–	–	–
A26.8-T56R, Q101K, T103M (VHH, not shown: small tags and cut ends) VHH: QVKLEESGGGLVQAGGSLRLSCAASERTFSRYPVAWFRQAPGAEREFVAVISSTGRSTYYADSVKGRFTISRDNAKVTVYLQMNNLKREDTAVYFCAVNSKRMRLQDPNEYDYWGQGTQVTVSS	–	–	-1.1 kcal/mol	–	6.5	2.87 nM	0.0296 s⁻¹	1.04e+07 M⁻¹ s⁻¹	–	–	–	–	–	–	–	–	–
A26.8 VHH mutant D107N (VHH, not shown: small tags and cut ends) VHH: QVKLEESGGGLVQAGGSLRLSCAASERTFSRYPVAWFRQAPGAEREFVAVISSTGTSTYYADSVKGRFTISRDNAKVTVYLQMNNLKREDTAVYFCAVNSQRTRLQNPNEYDYWGQGTQVTVSS	–	–	0.08 kcal/mol	≤ 2.5 fold	0.9	21.3 nM	0.0402 s⁻¹	1.92e+06 M⁻¹ s⁻¹	–	–	–	–	–	–	–	–	–
A26.8-T58K (VHH, not shown: small tags and cut ends) VHH: QVKLEESGGGLVQAGGSLRLSCAASERTFSRYPVAWFRQAPGAEREFVAVISSTGTSKYYADSVKGRFTISRDNAKVTVYLQMNNLKREDTAVYFCAVNSQRTRLQDPNEYDYWGQGTQVTVSS	–	–	-0.19 kcal/mol	–	1.4	13.5 nM	0.0327 s⁻¹	2.47e+06 M⁻¹ s⁻¹	–	–	–	–	–	–	–	–	–
A26.8-T56R, T103K (VHH, not shown: small tags and cut ends) VHH: QVKLEESGGGLVQAGGSLRLSCAASERTFSRYPVAWFRQAPGAEREFVAVISSTGRSTYYADSVKGRFTISRDNAKVTVYLQMNNLKREDTAVYFCAVNSQRKRLQDPNEYDYWGQGTQVTVSS	–	–	-0.99 kcal/mol	–	5.4	3.44 nM	0.0291 s⁻¹	8.61e+06 M⁻¹ s⁻¹	–	–	–	–	–	–	–	–	–
A26.8-Q101K (VHH, not shown: small tags and cut ends) VHH: QVKLEESGGGLVQAGGSLRLSCAASERTFSRYPVAWFRQAPGAEREFVAVISSTGTSTYYADSVKGRFTISRDNAKVTVYLQMNNLKREDTAVYFCAVNSKRTRLQDPNEYDYWGQGTQVTVSS	–	–	-0.52 kcal/mol	–	2.5	7.63 nM	0.0198 s⁻¹	2.7e+06 M⁻¹ s⁻¹	> 2 fold	> 2 fold	–	–	–	–	–	–	–
A26.8-T103R (VHH, not shown: small tags and cut ends) VHH: QVKLEESGGGLVQAGGSLRLSCAASERTFSRYPVAWFRQAPGAEREFVAVISSTGTSTYYADSVKGRFTISRDNAKVTVYLQMNNLKREDTAVYFCAVNSQRRRLQDPNEYDYWGQGTQVTVSS	–	–	-0.73 kcal/mol	–	3.5	5.32 nM	0.014 s⁻¹	2.7e+06 M⁻¹ s⁻¹	> 2 fold	~3 fold	~2.5 fold	–	–	–	–	–	–
A26.8-T56R (VHH, not shown: small tags and cut ends) VHH: QVKLEESGGGLVQAGGSLRLSCAASERTFSRYPVAWFRQAPGAEREFVAVISSTGRSTYYADSVKGRFTISRDNAKVTVYLQMNNLKREDTAVYFCAVNSQRTRLQDPNEYDYWGQGTQVTVSS	–	–	-0.65 kcal/mol	–	3	6.16 nM	0.0269 s⁻¹	4.75e+06 M⁻¹ s⁻¹	> 2 fold	~3 fold	–	~2.5 fold	–	–	–	–	–
A26.8-T103K (VHH, not shown: small tags and cut ends) VHH: QVKLEESGGGLVQAGGSLRLSCAASERTFSRYPVAWFRQAPGAEREFVAVISSTGTSTYYADSVKGRFTISRDNAKVTVYLQMNNLKREDTAVYFCAVNSQRKRLQDPNEYDYWGQGTQVTVSS	–	–	-0.48 kcal/mol	–	2.3	8.29 nM	0.0199 s⁻¹	2.47e+06 M⁻¹ s⁻¹	> 2 fold	> 2 fold	–	–	–	–	–	–	–
A26.8-T56R, Q101K, T103R (VHH, not shown: small tags and cut ends, also called lead triple mutant; best triple mutant) VHH: QVKLEESGGGLVQAGGSLRLSCAASERTFSRYPVAWFRQAPGAEREFVAVISSTGRSTYYADSVKGRFTISRDNAKVTVYLQMNNLKREDTAVYFCAVNSKRRRLQDPNEYDYWGQGTQVTVSS	~12 nM	~70%	-1.31 kcal/mol	–	9.4	1.98 nM	0.0241 s⁻¹	1.23e+07 M⁻¹ s⁻¹	–	–	–	–	6 fold	~7 fold	10 fold	–	–
A26.8-T103M (VHH, not shown: small tags and cut ends) VHH: QVKLEESGGGLVQAGGSLRLSCAASERTFSRYPVAWFRQAPGAEREFVAVISSTGTSTYYADSVKGRFTISRDNAKVTVYLQMNNLKREDTAVYFCAVNSQRMRLQDPNEYDYWGQGTQVTVSS	–	–	-0.18 kcal/mol	–	1.4	13.7 nM	0.0237 s⁻¹	1.77e+06 M⁻¹ s⁻¹	–	–	–	–	–	–	–	–	–
A26.8 VHH mutant E110Q (VHH, not shown: small tags and cut ends) VHH: QVKLEESGGGLVQAGGSLRLSCAASERTFSRYPVAWFRQAPGAEREFVAVISSTGTSTYYADSVKGRFTISRDNAKVTVYLQMNNLKREDTAVYFCAVNSQRTRLQDPNQYDYWGQGTQVTVSS	–	–	0.34 kcal/mol	≤ 2.5 fold	0.6	33.6 nM	0.0699 s⁻¹	2.08e+06 M⁻¹ s⁻¹	–	–	–	–	–	–	–	–	–
A26.8-T56R, T103M (VHH, not shown: small tags and cut ends) VHH: QVKLEESGGGLVQAGGSLRLSCAASERTFSRYPVAWFRQAPGAEREFVAVISSTGRSTYYADSVKGRFTISRDNAKVTVYLQMNNLKREDTAVYFCAVNSQRMRLQDPNEYDYWGQGTQVTVSS	–	–	-0.79 kcal/mol	–	3.9	4.84 nM	0.0304 s⁻¹	6.42e+06 M⁻¹ s⁻¹	–	–	–	–	–	–	–	–	–
A26.8-T103W (VHH, not shown: small tags and cut ends) VHH: QVKLEESGGGLVQAGGSLRLSCAASERTFSRYPVAWFRQAPGAEREFVAVISSTGTSTYYADSVKGRFTISRDNAKVTVYLQMNNLKREDTAVYFCAVNSQRWRLQDPNEYDYWGQGTQVTVSS	–	–	-0.08 kcal/mol	–	1.1	16.3 nM	0.0361 s⁻¹	2.39e+06 M⁻¹ s⁻¹	–	–	–	–	–	–	–	–	–
A26.8-T56R, T103R (VHH, not shown: small tags and cut ends, also called lead double mutant; best double mutant) VHH: QVKLEESGGGLVQAGGSLRLSCAASERTFSRYPVAWFRQAPGAEREFVAVISSTGRSTYYADSVKGRFTISRDNAKVTVYLQMNNLKREDTAVYFCAVNSQRRRLQDPNEYDYWGQGTQVTVSS	~12 nM	~70%	-1.22 kcal/mol	–	8.1	2.32 nM	0.0193 s⁻¹	8.33e+06 M⁻¹ s⁻¹	–	–	–	–	6 fold	–	–	8 fold	> 6 fold
A26.8 VHH mutant R104W (VHH, not shown: small tags and cut ends) VHH: QVKLEESGGGLVQAGGSLRLSCAASERTFSRYPVAWFRQAPGAEREFVAVISSTGTSTYYADSVKGRFTISRDNAKVTVYLQMNNLKREDTAVYFCAVNSQRTWLQDPNEYDYWGQGTQVTVSS	–	–	1.27 kcal/mol	~10 fold	0.1	165 nM	0.0548 s⁻¹	330000 M⁻¹ s⁻¹	–	–	–	–	–	–	–	–	–
